Assay results from US9658208B2, “Methods and G proteins for screening and identifying ligands of G protein-coupled receptors” (Fred Hutchinson Cancer Research Center, priority 2011, dated 2017).

Columns and labels:
[1] = system: nine GPCRs that do not bind to Gαs (serotonin 1b, neuropeptide Y1, leukotriene B4, dopamine D4, GNRH, UDP, calcium-sensing, T1R2/T1R3); experiment: CRE-SEAP reporter gene assay, coupling of chimeric G proteins with a variety of GPCRs; format: cell-based; conditions: HEK-293 cells, GPCR ligand 48 hours
Text: (§1) The GPCRs examined were those that couple with Gαi/Gαo subunits (serotonin 1b, neuropeptide Y1, leukotriene B4, and dopamine D4), Gαq (GNRH, UDP, and calcium-sensing receptors), and the orphan mammalian sweet taste receptor complex (T1R2 and T1R3) with unknown coupling preference. The Gαs-based chimeric G proteins examined in this example were Gαs-Gαi-5, Gαs-Gαt-13 (SEQ ID NO: 3), Gαs-Gαo-13 (SEQ ID NO: 4), Gαs-Gαi-13 (SEQ ID NO: 5), Gαs-Gαz-6 (SEQ ID NO: 18), Gαs-Gα15-13 (SEQ ID NO: 7), Gαs-Gαk-5 (SEQ ID NO: 2), and Gαs-Gαq-13 (SEQ ID NO: 8). The chimeric G protein constructs were prepared as described herein. For the coupling assay, HEK-293 cells were cotransfected with each of the Gαs-based chimeric G protein constructs of interest together with the CRE-SEAP reporter gene construct and a cDNA encoding the GPCR to be tested. The transfected cells were cultured in the presence or absence of a GPCR ligand and then assayed for SEAP activity.
Chimeric G protein cloning: An insert containing rat Gαs cDNA was cut out using the restriction enzymes SaII and HinDIII, and ligated into pcDNA3.1(−) cut with XhoI and HinDIII. The chimeric G proteins with the desired C-terminal amino acid substitutions from the Gαi, Gαt, Gαo, Gαz, Gα15, Gαk, and Gαq were prepared by PCR using Gαs as a template. More specifically, Gαs was PCR amplified between an internal EcoRI site and the stop codon, with a 3′ HinDIII placed immediately after the stop codon. A different 3′ oligonucleotide was used for each Gαs chimera and contained a 39 bp sequence that encoded the substituted amino acids at the C-terminus selected from the donor Gα subunit.
GPCR cloning: Mouse 5-HT1B, mouse dopamine D4, human GNRH, and human neuropeptide Y1 receptors were cloned by PCR from cDNA templates (ATCC) and ligated into pcDNA 3.1(−) (Invitrogen) for expression in mammalian cells. […]
(§2) Following transfection, the cells were maintained for 48 hours in 200 ul serum free media containing GPCR ligand. […] Fluorescence was then measured using a CytoFluor 4000 multi well plate reader (Applied Biosystems).

[2] = molecular target: T1, dopamine D4 receptor (Mus musculus, UniProt P51436); experiment: CRE-SEAP reporter gene assay, coupling with dopamine D4; format: cell-based; conditions: HEK-293 cells, 1 uM dopamine
T1 construct: expressed in transfected cells; host or cells: HEK-293
T1 sequence (P51436 1-387): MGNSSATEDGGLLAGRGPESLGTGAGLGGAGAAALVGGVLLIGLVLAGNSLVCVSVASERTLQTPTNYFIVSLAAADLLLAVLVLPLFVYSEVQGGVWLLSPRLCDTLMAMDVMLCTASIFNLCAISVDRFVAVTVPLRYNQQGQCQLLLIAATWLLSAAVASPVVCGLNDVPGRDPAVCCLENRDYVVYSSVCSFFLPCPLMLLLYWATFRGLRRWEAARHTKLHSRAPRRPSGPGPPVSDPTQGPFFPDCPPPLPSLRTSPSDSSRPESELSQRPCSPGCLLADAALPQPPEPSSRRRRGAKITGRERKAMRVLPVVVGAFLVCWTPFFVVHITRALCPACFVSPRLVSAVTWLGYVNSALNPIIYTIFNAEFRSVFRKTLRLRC
Text: as §1
Chimeric G protein cloning: An insert containing rat Gαs cDNA was cut out using the restriction enzymes SaII and HinDIII, and ligated into pcDNA3.1(−) cut with XhoI and HinDIII. […]
as §2

B1: Gαs-Gαt-13: Gαs-based chimeric G protein, final 13 C-terminal amino acids substituted with those of Gαt (protein)
chain: MGCLGNSKTEDQRNEEKAQREANKKIEKQLQKDKQVYRATHRLLLLGAGESGKSTIVKQMRILHVNGFNGEGGEEDVPDYASNSDGEKATKVQDIKNNLKEAIETIVAAMSNLVPPVELANPENQFRVDYILSVMNVPNFDFPPEFYEHAKALWEDEGVRACYERSNEYQLIDCAQYFLDKIDVIKQADYVPSDQDLLRCRVLTSGIFETKFQVDKVNFHMFDVGGQRDERRKWIQCFNDVTAIIFVVASSSYNMVIREDNQTNRLQEALNLFKSIWNNRWLRTISVILFLNKQDLLAEKVLAGKSKIEDYFPEFARYTTPEDATPEPGEDPRVTRAKYFIRDEFLRISTASGDGRHYCYPHFTCAVDTENIRRVFNDCRDIIIKENLKDCGLF
modifications: Chimeric protein
notes: Gαs-based chimeric G protein, final 13 C-terminal amino acids substituted with those of Gαt
GPCRs tested that coupled to the chimera [1]: All but one
coupling with dopamine D4 receptor [2]: did not couple
